Experimental data taken from patent US20130123481A1, “MODIFIED NUCLEOSIDES, NUCLEOTIDES, AND NUCLEIC ACIDS, AND USES THEREOF” (MODERNA THERAPEUTICS, priority 2011, published 2013).

Assays:
[1] = system: peripheral blood mononuclear cells (PBMC); experiment: In Vitro PBMC Studies: Percent modification - G-CSF expression; assay type: cell-based, human; details: for G-CSF Expression: 480 ng mRNA
Method: 480 ng of G-CSF mRNA modified with 5-methylcytosine (5mC) and pseudouridine (pseudoU) or unmodified G-CSF mRNA was transfected with 0.4 uL of Lipofectamine 2000 into peripheral blood mononuclear cells (PBMC) from three normal blood donors (D1, D2, and D3). […] The supernatant was harvested and run by ELISA 22 hours after transfection to determine the protein expression. The expression of IFN-alpha and TNF-alpha may be a secondary effect from the transfection of the G-CSF mRNA.

[2] = system: peripheral blood mononuclear cells (PBMC), IFN-alpha; experiment: In Vitro PBMC Studies: Percent modification - IFN-alpha expression; assay type: cell-based, human
Method: (§1) The supernatant was harvested and run by ELISA 22 hours after transfection to determine the protein expression.

[3] = system: peripheral blood mononuclear cells (PBMC), TNF-alpha; experiment: In Vitro PBMC Studies: Percent modification - TNF-alpha expression; assay type: cell-based, human
Method: as §1

[4] = system: peripheral blood mononuclear cells (PBMC); experiment: Modified RNA transfected in PBMC (0.1-100% modification) - G-CSF expression; assay type: cell-based, human
Method: 500 ng of G-CSF mRNA modified with 5-methylcytosine (5mC) and pseudouridine (pseudoU) or unmodified G-CSF mRNA was transfected with 0.4 uL of Lipofectamine 2000 into peripheral blood mononuclear cells (PBMC) from three normal blood donors (D1, D2, and D3). […] The supernatant was harvested 6 hours and 18 hours after transfection and run by ELISA to determine the protein expression. The expression of G-CSF, IFN-alpha, and TNF-alpha for Donor 1 is shown in Table 10, Donor 2 is shown in Table 11 and Donor 3 is shown in Table 12.

[5] = system: mice; experiment: Intravenous Administration - neutrophil count; assay type: in vivo, mouse; details: for Neutrophil: I.V. 50 ug RNA at days 0, 2 and 4, 10% lipoplex
Method: Neutrophils were measured at days 1, 5 and 8. Controls included non-specific mammalian RNA or the formulation buffer alone (F.Buffer). The mice were bled at days 1, 5 and 8 to determine the effect of mRNA-encoded human G-CSF to increase neutrophil count. The dosing regimen is shown in Table 21 as are the resulting neutrophil counts (thousands/uL; K/uL).
In Table 21, an asterisk (*) indicates statistical significance at p<0.001 compared to buffer.

B1: 100% modification: G-CSF mRNA (SEQ ID NO: 1, Cap1) completely modified with 5mC and pseudoU (nucleic acid, listed as Homo Sapiens)
chain: GGGAAAUAAGAGAGAAAAGAAGAGUAAGAAGAAAUAUAAGAGCCACCAUGGCCGGUCCCGCGACCCAAAGCCCCAUGAAACUUAUGGCCCUGCAGUUGCUGCUUUGGCACUCGGCCCUCUGGACAGUCCAAGAAGCGACUCCUCUCGGACCUGCCUCAUCGUUGCCGCAGUCAUUCCUUUUGAAGUGUCUGGAGCAGGUGCGAAAGAUUCAGGGCGAUGGAGCCGCACUCCAAGAGAAGCUCUGCGCGACAUACAAACUUUGCCAUCCCGAGGAGCUCGUACUGCUCGGGCACAGCUUGGGGAUUCCCUGGGCUCCUCUCUCGUCCUGUCCGUCGCAGGCUUUGCAGUUGGCAGGGUGCCUUUCCCAGCUCCACUCCGGUUUGUUCUUGUAUCAGGGACUGCUGCAAGCCCUUGAGGGAAUCUCGCCAGAAUUGGGCCCGACGCUGGACACGUUGCAGCUCGACGUGGCGGAUUUCGCAACAACCAUCUGGCAGCAGAUGGAGGAACUGGGGAUGGCACCCGCGCUGCAGCCCACGCAGGGGGCAAUGCCGGCCUUUGCGUCCGCGUUUCAGCGCAGGGCGGGUGGAGUCCUCGUAGCGAGCCACCUUCAAUCAUUUUUGGAAGUCUCGUACCGGGUGCUGAGACAUCUUGCGCAGCCGUGAAGCGCUGCCUUCUGCGGGGCUUGCCUUCUGGCCAUGCCCUUCUUCUCUCCCUUGCACCUGUACCUCUUGGUCUUUGAAUAAAGCCUGAGUAGGAAG
modifications: Cap1; 5-methylcytidine and pseudouridine
G-CSF Expression ([1]; PBMC donor D1, 0.4 uL Lipofectamine 2000, ELISA 22 hours after transfection): 1968.9 pg/mL | G-CSF Expression ([1]; PBMC donor D2, 22 hours after transfection): 2595.6 pg/mL | G-CSF Expression ([1]; PBMC donor D3, 22 hours after transfection): 2835.7 pg/mL | Average G-CSF ([1]; average of PBMC donors D1-D3): 2466 pg/mL | Average IFN-a [2]: 153 pg/mL | ratio of protein/cytokine production relative to natural G-CSF mRNA, IFN-alpha ([2]; PBMC, Table 9): 100 fold | G-CSF/IFN-alpha (PC ratio) ([2]; calculated from Tables 7 and 8): 16 | Average TNF-a [3]: 47 pg/mL | ratio of protein/cytokine production relative to natural G-CSF mRNA, TNF-alpha ([3]; PBMC, Table 9): 27 fold | G-CSF/TNF-alpha (PC ratio) ([3]; calculated from Tables 7 and 8): 52 | G-CSF ([4]; PBMC Donor 1, 500 ng mRNA, 6 hours after transfection): 1815 pg/mL | G-CSF ([4]; PBMC Donor 1, 18 hours after transfection): 2224 pg/mL | G-CSF ([4]; PBMC Donor 2, 6 hours after transfection): 2184 pg/mL | G-CSF ([4]; PBMC Donor 2, 18 hours after transfection): 2432 pg/mL | G-CSF ([4]; PBMC Donor 3, 6 hours after transfection): 6086 pg/mL | G-CSF ([4]; PBMC Donor 3, 18 hours after transfection): 7549 pg/mL

B2: G-CSF modified mRNA: control modified G-CSF mRNA (SEQ ID NO: 1, Cap 1), fully modified 5-methylcytosine and pseudouridine, 8.4 nM (nucleic acid, listed as Homo Sapiens)
chain: GGGAAAUAAGAGAGAAAAGAAGAGUAAGAAGAAAUAUAAGAGCCACCAUGGCCGGUCCCGCGACCCAAAGCCCCAUGAAACUUAUGGCCCUGCAGUUGCUGCUUUGGCACUCGGCCCUCUGGACAGUCCAAGAAGCGACUCCUCUCGGACCUGCCUCAUCGUUGCCGCAGUCAUUCCUUUUGAAGUGUCUGGAGCAGGUGCGAAAGAUUCAGGGCGAUGGAGCCGCACUCCAAGAGAAGCUCUGCGCGACAUACAAACUUUGCCAUCCCGAGGAGCUCGUACUGCUCGGGCACAGCUUGGGGAUUCCCUGGGCUCCUCUCUCGUCCUGUCCGUCGCAGGCUUUGCAGUUGGCAGGGUGCCUUUCCCAGCUCCACUCCGGUUUGUUCUUGUAUCAGGGACUGCUGCAAGCCCUUGAGGGAAUCUCGCCAGAAUUGGGCCCGACGCUGGACACGUUGCAGCUCGACGUGGCGGAUUUCGCAACAACCAUCUGGCAGCAGAUGGAGGAACUGGGGAUGGCACCCGCGCUGCAGCCCACGCAGGGGGCAAUGCCGGCCUUUGCGUCCGCGUUUCAGCGCAGGGCGGGUGGAGUCCUCGUAGCGAGCCACCUUCAAUCAUUUUUGGAAGUCUCGUACCGGGUGCUGAGACAUCUUGCGCAGCCGUGAAGCGCUGCCUUCUGCGGGGCUUGCCUUCUGGCCAUGCCCUUCUUCUCUCCCUUGCACCUGUACCUCUUGGUCUUUGAAUAAAGCCUGAGUAGGAAG
modifications: Cap1; 5-methylcytosine and pseudouridine
increase in neutrophil count above control at day 5 ([5]; intravenous administration): four to five fold increase

B3: G-CSF (no modification): human G-CSF mRNA having no modifications, formulated in 10% lipoplex (RNAIMAX) (nucleic acid, listed as Homo Sapiens)
chain: GGGAAAUAAGAGAGAAAAGAAGAGUAAGAAGAAAUAUAAGAGCCACCAUGGCCGGUCCCGCGACCCAAAGCCCCAUGAAACUUAUGGCCCUGCAGUUGCUGCUUUGGCACUCGGCCCUCUGGACAGUCCAAGAAGCGACUCCUCUCGGACCUGCCUCAUCGUUGCCGCAGUCAUUCCUUUUGAAGUGUCUGGAGCAGGUGCGAAAGAUUCAGGGCGAUGGAGCCGCACUCCAAGAGAAGCUCUGCGCGACAUACAAACUUUGCCAUCCCGAGGAGCUCGUACUGCUCGGGCACAGCUUGGGGAUUCCCUGGGCUCCUCUCUCGUCCUGUCCGUCGCAGGCUUUGCAGUUGGCAGGGUGCCUUUCCCAGCUCCACUCCGGUUUGUUCUUGUAUCAGGGACUGCUGCAAGCCCUUGAGGGAAUCUCGCCAGAAUUGGGCCCGACGCUGGACACGUUGCAGCUCGACGUGGCGGAUUUCGCAACAACCAUCUGGCAGCAGAUGGAGGAACUGGGGAUGGCACCCGCGCUGCAGCCCACGCAGGGGGCAAUGCCGGCCUUUGCGUCCGCGUUUCAGCGCAGGGCGGGUGGAGUCCUCGUAGCGAGCCACCUUCAAUCAUUUUUGGAAGUCUCGUACCGGGUGCUGAGACAUCUUGCGCAGCCGUGAAGCGCUGCCUUCUGCGGGGCUUGCCUUCUGGCCAUGCCCUUCUUCUCUCCCUUGCACCUGUACCUCUUGGUCUUUGAAUAAAGCCUGAGUAGGAAG
modifications: Cap1; polyA tail; lipoplex
Neutrophil ([5]; Day 1): 1.88 K/uL | Neutrophil ([5]; Day 5): 1.95 K/uL | Neutrophil ([5]; Day 8): 2.09 K/uL
